Results reported in patent publication US20170145086A1 (VISTERRA, published 2017).
Where “and” joins values, the source holds several entries; their conditions need not be identical. Equal entries are not always repeated.

Tests used:
[1] = target: T1, HA-GCN4 hAPRIL (amino acid residues 105-250) (human, UniProt O75888 105-250); experiment: indirect ELISA on HA-GCN4 human APRIL, 3-parameter fit
T1 construct: Bought (R&D Systems); also called HA-tagged GCN4 human APRIL; HA-GCN4-huAPRIL; not shown: N-terminal HA tag; GCN4 isoleucine zipper oligomerization domain
T1 sequence: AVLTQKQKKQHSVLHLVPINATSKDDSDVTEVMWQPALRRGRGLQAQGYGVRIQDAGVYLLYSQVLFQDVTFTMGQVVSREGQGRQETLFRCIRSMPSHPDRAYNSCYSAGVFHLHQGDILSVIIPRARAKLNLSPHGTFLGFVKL
Protocol: FIG. 5 depicts the binding of anti-APRIL antibodies to human APRIL. Relative binding of select anti-APRIL antibodies was measured by indirect ELISA. Select antibodies based on prior hybridoma screening were recombinantly produced (based on immunoglubin VH and VL gene sequencing) as described. HA-tagged GCN4 human APRIL R&D Systems was used as source of APRIL. Binding data was analyzed by non-linear regression using a three parameter fit.
(§1) Purified antibodies were further characterized for APRIL binding, APRIL species cross reactivity (human APRIL vs. mouse APRIL), and receptor blocking activity using TACI-Fc. For binding, an APRIL-based indirect ELISA was used to determine by first approximation the relative affinity of purified anti-APRIL antibodies to either human APRIL or mouse APRIL. ELISA method was as generally described above. […] Blocking and wash steps were completed as described. Binding of anti-APRIL antibodies to APRIL was quantified using an 8 point dilution of test antibody that spanned over a four log scale. Antibody binding to APRIL was detected using a rabbit anti-mouse IgG (H+L)-HRP conjugate (Jackson ImmunoResearch Laboratories). Antibody binding data was analyzed by non-linear regression analysis using a 3 parameter fit to determine max binding and apparent EC₅₀ values. […] Mouse specific antibody Apry-1-1 (Adipogen) was likewise used for quantification of antibody binding to mouse APRIL.

[2] = target: T1, HA-GCN4 hAPRIL (amino acid residues …); experiment: indirect ELISA on coated HA-GCN4 human APRIL; EC50 from non-linear regression
Text: as §1

[3] = target: T1, HA-GCN4 hAPRIL (amino acid residues …); experiment: blocking ELISA; blocked: human APRIL binding to human BCMA-Fc; design: concentration or dose not given beside the values
Protocol: (§2) Recombinant TACI-Fc or BCMA-Fc was coated on 96 well plates in 0.1 M carbonate-bicarbonate buffer (pH 9.6), overnight at 4° C. Plates were washed three times with 1×PBST (PBS+0.025% Tween 20) followed by blocking with 1% BSA in 1×PBS, 37° C. for 1 hour. All subsequent wash steps were carried out with 1×PBST. To assess antibody blocking, either 15 ng/mL or 50 ng/mL HA-GCN4-huAPRIL was preincubated with varying antibody concentrations ranging from 0.03-30 μg/mL in binding buffer comprised of 1% BSA and 0.025% Tween-20 in 1×PBS. Preincubation was carried out at 30° C. for 1 hour with mixing. Antibody-APRIL premix with 50 ng/mL APRIL or 15 ng/mL APRIL was then added to TACI-Fc coated or BCMA-Fc coated plates, respectively, and incubated for an additional hour at 30° C. HA-tagged APRIL binding to either receptor was quantified using a goat polyclonal anti-HA tag-HRP antibody (Abcam) added at a 1:10000 dilution followed by colorimetric development using 100 μl/well of freshly prepared TMB substrate (KPL) carried out for up to 30 minutes at room temperature before quenching enzymatic reaction by the addition of 1N sulfuric acid. ELISA signal was quantified by absorbance at 450 nm. ELISA data was analyzed by non-linear regression. IC₅₀ values were calculated based on a 4 parameter fit of antibody titration curves. […] Non-blocking antibodies Aprly-1 or Aprly-5 (Enzo Biosciences) were used as negative controls. Mouse specific, blocking antibody aprily-1-1 (Adipogen) was generally used as a positive control in experiments using mouse APRIL (HA-GCN4-mAPRIL).

[4] = target: T1, HA-GCN4 hAPRIL (amino acid residues …); experiment: blocking ELISA; blocked: human APRIL binding to human TACI-Fc; design: concentration or dose not given beside the values
Protocol: as §2

[5] = target: T1, HA-GCN4 hAPRIL (amino acid residues …); experiment: blocking ELISA, 4-parameter fit; blocked: human APRIL binding to human TACI-Fc
Protocol: as §2

[6] = target: T1, HA-GCN4 hAPRIL (amino acid residues …); experiment: competition ELISA: antibody titrated against human APRIL, read-out APRIL bound to coated human TACI-Fc
Protocol: Mouse specific antibody Apry-1-1 (Adipogen) was likewise used for quantification of antibody binding to mouse APRIL.
Recombinant TACI-Fc or BCMA-Fc was coated on 96 well plates in 0.1 M carbonate-bicarbonate buffer (pH 9.6), overnight at 4° C. Plates were washed three times with 1×PBST (PBS+0.025% Tween 20) followed by blocking with 1% BSA in 1×PBS, 37° C. for 1 hour. All subsequent wash steps were carried out with 1×PBST. To assess antibody blocking, either 15 ng/mL or 50 ng/mL HA-GCN4-huAPRIL was preincubated with varying antibody concentrations ranging from 0.03-30 μg/mL in binding buffer comprised of 1% BSA and 0.025% Tween-20 in 1×PBS. Preincubation was carried out at 30° C. for 1 hour with mixing. […] HA-tagged APRIL binding to either receptor was quantified using a goat polyclonal anti-HA tag-HRP antibody (Abcam) added at a 1:10000 dilution followed by colorimetric development using 100 μl/well of freshly prepared TMB substrate (KPL) carried out for up to 30 minutes at room temperature before quenching enzymatic reaction by the addition of 1N sulfuric acid. ELISA signal was quantified by absorbance at 450 nm. ELISA data was analyzed by non-linear regression. IC₅₀ values were calculated based on a 4 parameter fit of antibody titration curves. […]

[7] = target: T2, HA-GCN4 mAPRIL (amino acid residues 96-241) (mouse, UniProt Q9D777 96-241, Assembles as a homotrimer through the GCN4 zipper; one protomer is given.); experiment: blocking ELISA; blocked: mouse APRIL binding to human BCMA-Fc
T2 construct: Bought (R&D Systems); also called HA-tagged mouse APRIL (R&D Systems); recombinant mouse APRIL; not shown: N-terminal HA tag and GCN4 isoleucine-zipper trimerisation domain, with any linker, of the bought R&D Systems protein
T2 sequence: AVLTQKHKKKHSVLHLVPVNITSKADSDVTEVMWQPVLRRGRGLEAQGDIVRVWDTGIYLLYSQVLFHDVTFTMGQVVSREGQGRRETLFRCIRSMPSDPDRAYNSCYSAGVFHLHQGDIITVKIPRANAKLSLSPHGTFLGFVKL
Protocol: Recombinant TACI-Fc or BCMA-Fc was coated on 96 well plates in 0.1 M carbonate-bicarbonate buffer (pH 9.6), overnight at 4° C. Plates were washed three times with 1×PBST (PBS+0.025% Tween 20) followed by blocking with 1% BSA in 1×PBS, 37° C. for 1 hour. All subsequent wash steps were carried out with 1×PBST. To assess antibody blocking, either 15 ng/mL or 50 ng/mL HA-GCN4-huAPRIL was preincubated with varying antibody concentrations ranging from 0.03-30 μg/mL in binding buffer comprised of 1% BSA and 0.025% Tween-20 in 1×PBS. Preincubation was carried out at 30° C. for 1 hour with mixing. Antibody-APRIL premix with 50 ng/mL APRIL or 15 ng/mL APRIL was then added to TACI-Fc coated or BCMA-Fc coated plates, respectively, and incubated for an additional hour at 30° C. HA-tagged APRIL binding to either receptor was quantified using a goat polyclonal anti-HA tag-HRP antibody (Abcam) added at a 1:10000 dilution followed by colorimetric development using 100 μl/well of freshly prepared TMB substrate (KPL) carried out for up to 30 minutes at room temperature before quenching enzymatic reaction by the addition of 1N sulfuric acid. ELISA signal was quantified by absorbance at 450 nm. ELISA data was analyzed by non-linear regression. IC₅₀ values were calculated based on a 4 parameter fit of antibody titration curves. […]

[8] = target: T1, HA-GCN4 hAPRIL (amino acid residues …); experiment: blocking ELISA, 4-parameter fit; blocked: human APRIL binding to human BCMA-Fc
Protocol: as §2

[9] = target: T1, HA-GCN4 hAPRIL (amino acid residues …); experiment: ELISA on trimeric (GCN4-stabilised) human APRIL
Text: APRIL trimer was stabilized by the N-terminal fusion of APRIL with an isoleucine zipper (GCN4) oligomerization domain Binding of APRIL to human TACI-Fc is shown for comparative purposes.

[10] = target: T1, HA-GCN4 hAPRIL (amino acid residues …); experiment: cell-based or functional assay
[11] = target: T1, HA-GCN4 hAPRIL (amino acid residues …); experiment: indirect ELISA on human APRIL
[12] = target: T1, HA-GCN4 hAPRIL (amino acid residues …); experiment: blocking ELISA; blocked: human APRIL binding to BCMA-Fc
Protocol: as §2
Assay is based on receptor blocking ELISA using recombinant human APRIL (R&D Systems) and either human TACI-Fc (FIG. 30A) or BCMA-Fc (FIG. 30B).

[13] = target: T1, HA-GCN4 hAPRIL (amino acid residues …); experiment: blocking ELISA; blocked: human APRIL binding to TACI-Fc

Row | Binder | EC50 [1] | % Inhibition [3] [%] | % Inhibition [4] [%] | IC50 [5] [pM] | EC50 [9] [pM] | other results
1 | monoclonal antibody 3125 (antibody, mouse IgG2, V domains shown) VH: QVQLQQSGAELVRPGASVTLSCKASGYTFTDYEMHWVKQTPVHGLEWIGAIDPETGGTAYNQRFKGKAILTTDKSSITAYMELRSLTSEDSAVYYCTRWNDGDYWGQGTTLTVSS VL: DVVMTQTPLSLSVTIGQPASISCKSSQSLLYSNGKTYLNWFQQRPGQSPKRLMYQVSKLDPGIPDRFSGSGSETDFTLKISRVEAEDLGLYYCLQGTYYPYTFGGGTKLEIK | 0.281 µg/mL and 1.9 nM | < 10 | 52 | 113000 | – | EC50 [2]: > 1000 pM; IC50 [6]: > 10000 pM
2 | monoclonal antibody 3525 (antibody, mouse IgG2, V domains shown) VH: QVQLQQSGAELVRPGASVKLSCKASGYTFTDHEMHWVRQTPVHGLEWIGVIDPDTGDTTYNQKFKGKATLTADKSSSTAYMDLRSLTSEDSAVFYCTRWTGGDYWGHGTTLTVSS VL: DVVMTQTPLSLSVTIGQPASISCKSSQSLLYSNGKTYLNWFQQRPGQSPKRLMYQVSKLDPGIPDRFSGSGSETDFTLKISRVEAEDLGLYYCLQGTYYPYTFGGGTKLEIK | 0.0534 µg/mL and 0.361 nM | 48 | 86 | 4050 | – | IC50 (read off the curve) [7]: ~0.3 µg/mL; IC50 [8]: 850 pM
3 | HuTACI-Fc-001 (Fc fusion, human, UniProt O14836 29-110, looked up, range 29-110; also called human TACI-Fc; recombinant TACI-Fc; not shown: Fc portion of human IgG1 beginning at position E98 in CH1) VAMRSCPEEQYWDPLLGTCMSCKTICNHQSQRTCAAFCRSLSCRKEQGKFYDHLLRDCISCASICGQHPKQCAYFCENKLRS | – | – | – | – | 103 | –
4 | monoclonal antibody 4035-062 (antibody, IgG1, V domains shown) VH: QVQLQESGPGLVKPSETLSLTCTVSGFSLTIYDVHWVRQPPGKGLEWIGVIWSDGSTDYNPSLKSRVTISKDTSKNQVSLKLSSVTAADTAVYYCARNWVDQAWFAYWGQGTLVTVSS VL: DIQMTQSPSSLSASVGDRVTITCRASKNIYSYLAWYQQKPGKAPKLLVYNAKTLPEGVPSRFSGSGSGTDFTLTISSLQPEDFATYYCQHHYGTPLTFGQGTKLEIK | – | – | – | – | 13.5 | IC50 (inhibition of APRIL-mediated BCMA NFκB signaling) [10]: ~380 pM; IC50 (inhibition of APRIL-mediated TACI NFκB signaling) [10]: ~1020 pM; EC50 [11]: 1.28 pM; IC50 [12]: 100 pM; Relative Activity (normalised to 2419) [12]: 0.41; IC50 [13]: 260 pM; Relative Activity (normalised to 2419) [13]: 0.93
5 | monoclonal antibody 2419-1406 (antibody, V domains shown) VH: QVQLVQSGAEVKKPGASVKVSCKASGYTFTDYTIHWVRQATGQGLEWMGWIYPLRGSINYAQKFQGRVTMTADKSISTVYMELSSLRSEDTAVYFCARHGAYYSNAFDYWGQGTLVTVSS VL: EIVMTQSPATLSVSPGERATLSCRASESVDNDGIRFLHWYQQKPGQAPRLLIYRASTRATGIPARFSGSGSRTEFTLTISSLQSEDFAVYYCQQSNKDPYTFGGGTKVEIK | – | – | – | – | 38.4 | EC50 [11]: 3.34 pM; IC50 [12]: 110 pM; Relative Activity (normalised to 2419) [12]: 0.47; IC50 [13]: 240 pM; Relative Activity (normalised to 2419) [13]: 0.88
6 | monoclonal antibody 2922 (antibody, mouse IgG2, V domains shown) VH: QVQLHQSGPELVKPGASVKLSCKTSGYTFTSYDVFWVKQRPGQGLEWIGWIYPRDSSTKYNEKFKGKATLTVDTSSSTAYMELHSLTSEDSAVYFCAKEGYDYDKRGFDYWGQGTTLTVSS VL: DIVLTQSPASLAVSLGQRAIISCKASQSVSFAGTNLMHWYQQRPGQQPKLLIYRASNLEPGVPTRFSGSGSRTDFTLNIHPVEEDDAATYYCQQSREYPWTFGGGTKLEIK | 0.0713 µg/mL and 0.482 nM | 97 | 97 | 31600 | – | IC50 [8]: 22000 pM; IC50 [6]: > 10000 pM
7 | monoclonal antibody 2621 (antibody, mouse IgG2, V domains shown) VH: EVQLQQSGAELVRPGSSVKMSCKTSGYTFTSYGINWVKQRPGQGLEWIGYIYIGNGYAEYNERFKGKATLTSDTSSSTAYMQLSSLTSEDSAIYFCALYYPWFTYWGQGTLVTVSA VL: DIQMTQSPASLSASVGDSVTITCRASENIYSYLAWYQQKQGKSPQLLVYNAKTLAEGVPSRFSGSGSGTQFSLKINSLQPEDFGNYYCQHHYDTPFTFGGGTKLEIK | 0.0143 µg/mL and 0.097 nM | 0 | 79 | 1000 | – | EC50 [2]: < 200 pM
